Numbering of substitutions follows the chain as printed. Where no end group is shown, it is not given here.
B1: Recombinant TEAD1 (S210-D426) (domain or fragment)
chain: SIGTTKLRLVEFSAFLEQQRDPDSYNKHLFVHIGHANHSYSDPLLESVDIRQIYDKFPEKKGGLKELFGKGPQNAFFLVKFWADLNCNIQDDAGAFYGVTSQYESSENMTVTCSTKVCSFGKQVVEKVETEYARFENGRFVYRINRSPMCEYMINFIHKLKHLPEKYMMNSVLENFTILLVVTNRDTQETLLCMACVFEVSNSEHGAQHHIYRLVKD
B2: biotinylated WT VGLL4 peptide (residues 202-259) (peptide)
peptide: ATTCDPVVEEHFRRSLGKNYKEPEPAPNSVSITGSVDDHFAKALGDTWLQIKAAKDGA
modifications: also: biotinylated, position not given here
B3: biotinylated VGLL4 peptide (residues 202-259), TDU1 mutant (peptide)
peptide: B2 peptide with H11A, F12A
modifications: also: biotinylated, position not given here

Assays:
TEAD1 = TEAD1 (Homo sapiens, UniProt P28347); experiment: SPR of recombinant TEAD1 and VGLL4 peptide with compound; format: binding
[1] = target: B2; experiment: SPR
[2] = target: B2; experiment: SPR; remark: listed apart in the source
[3] = target: B1; experiment: SPR

GNE-7883
SPR of recombinant TEAD1 and VGLL4 peptide with compound; TEAD1 AP-MS in cells (TEAD1): ~ 2 fold change in VGLL4-TEAD1 KD

B1
fold decrease of KD with GNE-7883 against DMSO [1]: ~2 fold | fold increase in affinity with VT-103 against DMSO [2]: ~12 fold

B2
Kd [3]: ~500 nM

B3
binding result [3]: binds
